Measured values: PMC10848371
Where two headings read alike, the source gives them in different places.

PD-1 (programmed cell death protein 1): 3NQ (N49Q, N58Q, N74Q)
decreases: localisation_or_trafficking (N-glycosylation at N49) | stability_or_folding (N-glycosylation at N49) | localisation_or_trafficking (N-glycosylation at N58) | stability_or_folding (N-glycosylation at N58) | localisation_or_trafficking (N-glycosylation at N74) | stability_or_folding (N-glycosylation at N74)
